# B1: dopamine transporter (DAT; rDAT) (Rattus norvegicus) (protein)
# chain: MSKSKCSVGPMSSVVAPAKESNAVGPREVELILVKEQNGVQLTNSTLINPPQTPVEAQERETWSKKIDFLLSVIGFAVDLANVWRFPYLCYKNGGGAFLVPYLLFMVIAGMPLFYMELALGQFNREGAAGVWKICPVLKGVGFTVILISFYVGFFYNVIIAWALHYFFSSFTMDLPWIHCNNTWNSPNCSDAHASNSSDGLGLNDTFGTTPAAEYFERGVLHLHQSRGIDDLGPPRWQLTACLVLVIVLLYFSLWKGVKTSGKVVWITATMPYVVLTALLLRGVTLPGAMDGIRAYLSVDFYRLCEASVWIDAATQVCFSLGVGFGVLIAFSSYNKFTNNCYRDAIITTSINSLTSFSSGFVVFSFLGYMAQKHNVPIRDVATDGPGLIFIIYPEAIATLPLSSAWAAVFFLMLLTLGIDSAMGGMESVITGLVDEFQLLHRHRELFTLGIVLATFLLSLFCVTNGGIYVFTLLDHFAAGTSILFGVLIEAIGVAWFYGVQQFSDDIKQMTGQRPNLYWRLCWKLVSPCFLLYVVVVSIVTFRPPHYGAYIFPDWANALGWIIATSSMAMVPIYATYKFCSLPGSFREKLAYAITPEKDHQLVDRGEVRQFTLRHWLLL
# Substrate: NCCc1ccc(O)c(O)c1
# Assay: [3H]DA uptake kinetics
# Format: cell-based, Rattus norvegicus
protein,measurement,value
B1,Km,1.50 ± 0.10 µM
